The supplement of paper PMC5998384

Key:
HeLa Kyoto [1] = assay: solubility change mitosis vs G1/S (difference of NP-40 vs SDS log2 ratios) (log2 ratio difference); higher = more soluble in mitosis
HeLa Kyoto [2] = assay: melting temperature (median over replicates), in situ; higher = more thermally stable
HeLa Kyoto [3] = assay: thermal stability score vs G1/S (z-score of summed log2 fold changes over temperatures); higher = more thermally stable than in G1/S
HeLa Kyoto [4] = assay: solubility in G1/S (NP-40 vs SDS abundance) (log2 ratio); higher = more soluble; settings: cell cycle stage: G1/S
[5] = cell cycle stage: early G1 (4.5 h after nocodazole release)
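For melting temperature (median over replicates), in situ in this document: HeLa Kyoto cells synchronized by double thymidine or nocodazole block, proteins quantified by TMT10plex mass spectrometry, three independent biological replicates.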
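For solubility change mitosis vs G1/S (difference of NP-40 vs SDS log2 ratios) in this document: synchronized HeLa Kyoto cells (double thymidine block for G1/S, nocodazole release for mitosis), protein amounts in NP-40 versus SDS lysates quantified by mass spectrometry, three biological replicates.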
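For solubility in G1/S (NP-40 vs SDS abundance) in this document: HeLa Kyoto cells arrested at G1/S by double thymidine block, proteins quantified by TMT10plex mass spectrometry in mild NP-40 versus SDS extracts, three biological replicates.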
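For thermal stability score vs G1/S (z-score of summed log2 fold changes over temperatures) in this document: synchronized HeLa Kyoto cells, proteins quantified by TMT10plex mass spectrometry, three biological replicates, mitosis taken 0.5 h after nocodazole release, G1/S directly after double thymidine block.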

Sequence | solubility change mitosis (log2) (HeLa Kyoto [1]) | melting temperature (HeLa Kyoto [2]; cell cycle stage: G1/S) [°C] | melting temperature (HeLa Kyoto [2]; cell cycle stage: mitosis) [°C] | thermal stability score (HeLa Kyoto [3]; [5]) | thermal stability score (HeLa Kyoto [3]; cell cycle stage: mitosis) | solubility in G1/S (log2) (HeLa Kyoto [4])
MEETIKDPPTSAVLLDHCHFSQVIFNSVEKFYIPGGDVTCHYTFTQHFIPRRKDWIGIFRVGWKTTREYYTFMWVTLPIDLNNKSAKQQEVQFKAYYLPKDDEYYQFCYVDEDGVVRGASIPFQFRPENEEDILVVTTQGEVEEIEQHNKELCKENQELKDSCISLQKQNSDMQAELQKKQEELETLQSINKKLELKVKEQKDYWETELLQLKEQNQKMSSENEKMGIRVDQLQAQLSTQEKEMEKLVQGDQDKTEQLEQLKKENDHLFLSLTEQRKDQKKLEQTVEQMKQNETTAMKKQQELMDENFDLSKRLSENEIICNALQRQKERLEGENDLLKRENSRLLSYMGLDFNSLPYQVPTSDEGGARQNPGLAYGNPYSGIQESSSPSPLSIKKCPICKADDICDHTLEQQQMQPLCFNCPICDKIFPATEKQIFEDHVFCHSL [CALCOCO2] | -0.0722 | 50.5 | 51 | -0.458 | -0.851 | 0.203
MEEVPHDCPGADSAQAGRGASCQGCPNQRLCASGAGATPDTAIEEIKEKMKTVKHKILVLSGKGGVGKSTFSAHLAHGLAEDENTQIALLDIDICGPSIPKIMGLEGEQVHQSGSGWSPVYVEDNLGVMSVGFLLSSPDDAVIWRGPKKNGMIKQFLRDVDWGEVDYLIVDTPPGTSDEHLSVVRYLATAHIDGAVIITTPQEVSLQDVRKEINFCRKVKLPIIGVVENMSGFICPKCKKESQIFPPTTGGAELMCQDLEVPLLGRVPLDPLIGKNCDKGQSFFIDAPDSPATLAYRSIIQRIQEFCNLHQSKEENLISS [NUBP1] | 0.00361 | 52.4 | 52.7 | 3.38 | 2.05 | 0.398
MEFAELIKTPRVDNVVLHRPFYPAVEGTLCLTGHHLILSSRQDNTEELWLLHSNIDAIDKRFVGSLGTIIIKCKDFRIIQLDIPGMEECLNIASSIEALSTLDSITLMYPFFYRPMFEVIEDGWHSFLPEQEFELYSSATSEWRLSYVNKEFAVCPSYPPIVTVPKSIDDEALRKVATFRHGGRFPVLSYYHKKNGMVIMRSGQPLTGTNGRRCKEDEKLINATLRAGKRGYIIDTRSLNVAQQTRAKGGGFEQEAHYPQWRRIHKSIERYHILQESLIKLVEACNDQTHNMDRWLSKLEASNWLTHIKEILTTACLAAQCIDREGASILIHGTEGTDSTLQVTSLAQIILEPRSRTIRGFEALIEREWLQAGHPFQQRCAQSAYCNTKQKWEAPVFLLFLDCVWQILRQFPCSFEFNENFLIMLFEHAYASQFGTFLGNNESERCKLKLQQKTMSLWSWVNQPSELSKFTNPLFEANNLVIWPSVAPQSLPLWEGIFLRWNRSSKYLDEAYEEMVNIIEYNKELQAKVNILRRQLAELETEDGMQESP [MTMR9] | -0.125 | 50.2 | 50.6 | -0.213 | -0.626 | -0.116
MEFDLGAALEPTSQKPGVGAGHGGDPKLSPHKVQGRSEAGAGPGPKQGHHSSSDSSSSSSDSDTDVKSHAAGSKQHESIPGKAKKPKVKKKEKGKKEKGKKKEAPH [IMUP] | 0.311 | 59.3 | – | 1.02 | -1.94 | 1.09
MEFSSPSREECPKPLSRVSIMAGSLTGLLLLQAVSWASGARPCIPKSFGYSSVVCVCNATYCDSFDPPTFPALGTFSRYESTRSGRRMELSMGPIQANHTGTGLLLTLQPEQKFQKVKGFGGAMTDAAALNILALSPPAQNLLLKSYFSEEGIGYNIIRVPMASCDFSIRTYTYADTPDDFQLHNFSLPEEDTKLKIPLIHRALQLAQRPVSLLASPWTSPTWLKTNGAVNGKGSLKGQPGDIYHQTWARYFVKFLDAYAEHKLQFWAVTAENEPSAGLLSGYPFQCLGFTPEHQRDFIARDLGPTLANSTHHNVRLLMLDDQRLLLPHWAKVVLTDPEAAKYVHGIAVHWYLDFLAPAKATLGETHRLFPNTMLFASEACVGSKFWEQSVRLGSWDRGMQYSHSIITNLLYHVVGWTDWNLALNPEGGPNWVRNFVDSPIIVDITKDTFYKQPMFYHLGHFSKFIPEGSQRVGLVASQKNDLDAVALMHPDGSAVVVVLNRSSKDVPLTIKDPAVGFLETISPGYSIHTYLWRRQ [GBA] | -0.136 | 55.4 | 55.7 | -0.371 | 0.189 | 0.227
